{
  "source": "ChEMBL document CHEMBL2311350",
  "about": "“Discovery of a novel phenylethyl benzamide glucokinase activator for the treatment of type 2 diabetes mellitus” (Bioorg Med Chem Lett, 2013)",
  "proteins": {"B1": {"name": "Hexokinase-4 (Homo sapiens), P35557 (protein)", "chain": "MLDDRARMEAAKKEKVEQILAEFQLQEEDLKKVMRRMQKEMDRGLRLETHEEASVKMLPTYVRSTPEGSEVGDFLSLDLGGTNFRVMLVKVGEGEEGQWSVKTKHQMYSIPEDAMTGTAEMLFDYISECISDFLDKHQMKHKKLPLGFTFSFPVRHEDIDKGILLNWTKGFKASGAEGNNVVGLLRDAIKRRGDFEMDVVAMVNDTVATMISCYYEDHQCEVGMIVGTGCNACYMEEMQNVELVEGDEGRMCVNTEWGAFGDSGELDEFLLEYDRLVDESSANPGQQLYEKLIGGKYMGELVRLVLLRLVDENLLFHGEASEQLRTRGAFETRFVSQVESDTGDRKQIYNILSTLGLRPSTTDCDIVRRACESVSTRAAHMCSAGLAGVINRMRESRSEDVMRITVGVDGSVYKLHPSFKERFHASVRRLTPSCEITFIESEEGSGRGAALVSAVACKKACMLGQ"}},
  "target": "Glucokinase (Homo sapiens)",
  "assay": "Induction of human pancreatic glucokinase activity assessed as maximal reaction rate at 5 mM glucose concentration",
  "data": [
    {"protein": "B1", "values": [
      {"measurement": "Vmax", "result": 130, "unit": "%"}
    ]}
  ]
}
